Publication PMC12416549 (2024)

T1: TNFR1 (Homo sapiens, UniProt P19438)
T1 chain: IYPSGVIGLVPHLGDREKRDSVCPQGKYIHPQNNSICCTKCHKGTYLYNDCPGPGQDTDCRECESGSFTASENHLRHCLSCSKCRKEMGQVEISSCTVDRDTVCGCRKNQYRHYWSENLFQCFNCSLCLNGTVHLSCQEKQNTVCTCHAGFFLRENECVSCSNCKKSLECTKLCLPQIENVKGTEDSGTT


Target: T1, TNFR1
Experiment: yeast display SC50

apparent Kd (screen) [nM]	Binder
7.07	K56G (designed binder) SMEEEVEKAAKEYEKKKKEAIEKHLEKLKAKDKEAAERFLKELEEAAKEYAKDEAGTMSEEEAKRRAKKYKEKVLLSELSEEEQKEIKEAEEKLVRTILKYVEEAAK
1.4	V6S (designed binder) SMEEESEKAAKEYEKKKKEAIEKHLEKLKAKDKEAAERFLKELEEAAKEYAKDEAKTMSEEEAKRRAKKYKEKVLLSELSEEEQKEIKEAEEKLVRTILKYVEEAAK
1.4	K107M (designed binder) SMEEEVEKAAKEYEKKKKEAIEKHLEKLKAKDKEAAERFLKELEEAAKEYAKDEAKTMSEEEAKRRAKKYKEKVLLSELSEEEQKEIKEAEEKLVRTILKYVEEAAM
0.593	E81F (designed binder) SMEEEVEKAAKEYEKKKKEAIEKHLEKLKAKDKEAAERFLKELEEAAKEYAKDEAKTMSEEEAKRRAKKYKEKVLLSELSFEEQKEIKEAEEKLVRTILKYVEEAAK
1.16	K8V (designed binder) SMEEEVEVAAKEYEKKKKEAIEKHLEKLKAKDKEAAERFLKELEEAAKEYAKDEAKTMSEEEAKRRAKKYKEKVLLSELSEEEQKEIKEAEEKLVRTILKYVEEAAK
1.05	K8I (designed binder) SMEEEVEIAAKEYEKKKKEAIEKHLEKLKAKDKEAAERFLKELEEAAKEYAKDEAKTMSEEEAKRRAKKYKEKVLLSELSEEEQKEIKEAEEKLVRTILKYVEEAAK
0.593	K33M (designed binder) SMEEEVEKAAKEYEKKKKEAIEKHLEKLKAKDMEAAERFLKELEEAAKEYAKDEAKTMSEEEAKRRAKKYKEKVLLSELSEEEQKEIKEAEEKLVRTILKYVEEAAK
11.4	K73E (designed binder) SMEEEVEKAAKEYEKKKKEAIEKHLEKLKAKDKEAAERFLKELEEAAKEYAKDEAKTMSEEEAKRRAKKYKEEVLLSELSEEEQKEIKEAEEKLVRTILKYVEEAAK
6.43	I98C (designed binder) SMEEEVEKAAKEYEKKKKEAIEKHLEKLKAKDKEAAERFLKELEEAAKEYAKDEAKTMSEEEAKRRAKKYKEKVLLSELSEEEQKEIKEAEEKLVRTCLKYVEEAAK
1.16	E82P (designed binder) SMEEEVEKAAKEYEKKKKEAIEKHLEKLKAKDKEAAERFLKELEEAAKEYAKDEAKTMSEEEAKRRAKKYKEKVLLSELSEPEQKEIKEAEEKLVRTILKYVEEAAK
0.49	K41E (designed binder) SMEEEVEKAAKEYEKKKKEAIEKHLEKLKAKDKEAAERFLEELEEAAKEYAKDEAKTMSEEEAKRRAKKYKEKVLLSELSEEEQKEIKEAEEKLVRTILKYVEEAAK
11.4	A63G (designed binder) SMEEEVEKAAKEYEKKKKEAIEKHLEKLKAKDKEAAERFLKELEEAAKEYAKDEAKTMSEEEGKRRAKKYKEKVLLSELSEEEQKEIKEAEEKLVRTILKYVEEAAK
0.49	H24M (designed binder) SMEEEVEKAAKEYEKKKKEAIEKMLEKLKAKDKEAAERFLKELEEAAKEYAKDEAKTMSEEEAKRRAKKYKEKVLLSELSEEEQKEIKEAEEKLVRTILKYVEEAAK
6.43	I98G (designed binder) SMEEEVEKAAKEYEKKKKEAIEKHLEKLKAKDKEAAERFLKELEEAAKEYAKDEAKTMSEEEAKRRAKKYKEKVLLSELSEEEQKEIKEAEEKLVRTGLKYVEEAAK
22.2	K73G (designed binder) SMEEEVEKAAKEYEKKKKEAIEKHLEKLKAKDKEAAERFLKELEEAAKEYAKDEAKTMSEEEAKRRAKKYKEGVLLSELSEEEQKEIKEAEEKLVRTILKYVEEAAK
6.43	A63R (designed binder) SMEEEVEKAAKEYEKKKKEAIEKHLEKLKAKDKEAAERFLKELEEAAKEYAKDEAKTMSEEERKRRAKKYKEKVLLSELSEEEQKEIKEAEEKLVRTILKYVEEAAK
3.99	Y70G (designed binder) SMEEEVEKAAKEYEKKKKEAIEKHLEKLKAKDKEAAERFLKELEEAAKEYAKDEAKTMSEEEAKRRAKKGKEKVLLSELSEEEQKEIKEAEEKLVRTILKYVEEAAK
12.5	E49M (designed binder) SMEEEVEKAAKEYEKKKKEAIEKHLEKLKAKDKEAAERFLKELEEAAKMYAKDEAKTMSEEEAKRRAKKYKEKVLLSELSEEEQKEIKEAEEKLVRTILKYVEEAAK
0.593	L25A (designed binder) SMEEEVEKAAKEYEKKKKEAIEKHAEKLKAKDKEAAERFLKELEEAAKEYAKDEAKTMSEEEAKRRAKKYKEKVLLSELSEEEQKEIKEAEEKLVRTILKYVEEAAK
0.869	A30F (designed binder) SMEEEVEKAAKEYEKKKKEAIEKHLEKLKFKDKEAAERFLKELEEAAKEYAKDEAKTMSEEEAKRRAKKYKEKVLLSELSEEEQKEIKEAEEKLVRTILKYVEEAAK
0.79	E83N (designed binder) SMEEEVEKAAKEYEKKKKEAIEKHLEKLKAKDKEAAERFLKELEEAAKEYAKDEAKTMSEEEAKRRAKKYKEKVLLSELSEENQKEIKEAEEKLVRTILKYVEEAAK
6.43	V74K (designed binder) SMEEEVEKAAKEYEKKKKEAIEKHLEKLKAKDKEAAERFLKELEEAAKEYAKDEAKTMSEEEAKRRAKKYKEKKLLSELSEEEQKEIKEAEEKLVRTILKYVEEAAK
0.446	D53S (designed binder) SMEEEVEKAAKEYEKKKKEAIEKHLEKLKAKDKEAAERFLKELEEAAKEYAKSEAKTMSEEEAKRRAKKYKEKVLLSELSEEEQKEIKEAEEKLVRTILKYVEEAAK
0.446	A51C (designed binder) SMEEEVEKAAKEYEKKKKEAIEKHLEKLKAKDKEAAERFLKELEEAAKEYCKDEAKTMSEEEAKRRAKKYKEKVLLSELSEEEQKEIKEAEEKLVRTILKYVEEAAK
0.539	E45D (designed binder) SMEEEVEKAAKEYEKKKKEAIEKHLEKLKAKDKEAAERFLKELEDAAKEYAKDEAKTMSEEEAKRRAKKYKEKVLLSELSEEEQKEIKEAEEKLVRTILKYVEEAAK
0.446	Y13H (designed binder) SMEEEVEKAAKEHEKKKKEAIEKHLEKLKAKDKEAAERFLKELEEAAKEYAKDEAKTMSEEEAKRRAKKYKEKVLLSELSEEEQKEIKEAEEKLVRTILKYVEEAAK
